# ± gives the uncertainty stated by the source.
# Assay: abundance fitness (aPCA) (normalised: wild type 0, dead -1); higher = more abundant; growth selection in yeast, the domain comes from the species named
# Conditions: Homo sapiens
row,Substance,abundance fitness
1,"Transcriptional activator Myb A167C, P10242",-0.17 ± 0.12
2,"Transcriptional activator Myb A167D, P10242",-0.177 ± 0.16
3,"Transcriptional activator Myb A167E, P10242",0.009 ± 0.13
4,"Transcriptional activator Myb A167F, P10242",-0.092 ± 0.12
5,"Transcriptional activator Myb A167G, P10242",0.045 ± 0.06
6,"Transcriptional activator Myb A167H, P10242",0.258 ± 0.24
7,"Transcriptional activator Myb A167I, P10242",-0.253 ± 0.22
8,"Transcriptional activator Myb A167K, P10242",-0.124 ± 0.11
9,"Transcriptional activator Myb A167L, P10242",-0.224 ± 0.079
10,"Transcriptional activator Myb A167M, P10242",-0.313 ± 0.15
11,"Transcriptional activator Myb A167N, P10242",-0.058 ± 0.11
12,"Transcriptional activator Myb A167P, P10242",0.037 ± 0.12
13,"Transcriptional activator Myb A167Q, P10242",0.015 ± 0.14
14,"Transcriptional activator Myb A167R, P10242",-0.146 ± 0.069
15,"Transcriptional activator Myb A167S, P10242",-0.095 ± 0.09
16,"Transcriptional activator Myb A167T, P10242",-0.126 ± 0.12
17,"Transcriptional activator Myb A167V, P10242",-0.083 ± 0.1
18,"Transcriptional activator Myb A167W, P10242",-0.27 ± 0.063
19,"Transcriptional activator Myb A167Y, P10242",-0.172 ± 0.12
20,"Transcriptional activator Myb A170C, P10242",-0.137 ± 0.13
21,"Transcriptional activator Myb A170D, P10242",-0.692 ± 0.12
22,"Transcriptional activator Myb A170E, P10242",-0.285 ± 0.12

row,Substance,abundance fitness
1,"Transcriptional activator Myb A170F, P10242",-0.896 ± 0.19
2,"Transcriptional activator Myb A170G, P10242",-0.229 ± 0.058
3,"Transcriptional activator Myb A170H, P10242",-0.716 ± 0.26
4,"Transcriptional activator Myb A170I, P10242",-1.45 ± 0.42
5,"Transcriptional activator Myb A170K, P10242",-0.581 ± 0.14
6,"Transcriptional activator Myb A170L, P10242",-0.743 ± 0.082
7,"Transcriptional activator Myb A170M, P10242",-0.393 ± 0.11
8,"Transcriptional activator Myb A170N, P10242",-0.655 ± 0.28
9,"Transcriptional activator Myb A170P, P10242",-0.809 ± 0.18
10,"Transcriptional activator Myb A170Q, P10242",-0.056 ± 0.094
11,"Transcriptional activator Myb A170R, P10242",-0.516 ± 0.059
12,"Transcriptional activator Myb A170S, P10242",-0.038 ± 0.087
13,"Transcriptional activator Myb A170T, P10242",-0.771 ± 0.12
14,"Transcriptional activator Myb A170V, P10242",-0.428 ± 0.063
15,"Transcriptional activator Myb A170W, P10242",-0.811 ± 0.12
16,"Transcriptional activator Myb A170Y, P10242",-1.08 ± 0.18
17,"Transcriptional activator Myb A180C, P10242",-0.021 ± 0.12
18,"Transcriptional activator Myb A180D, P10242",-0.022 ± 0.12
19,"Transcriptional activator Myb A180E, P10242",0.062 ± 0.098
20,"Transcriptional activator Myb A180G, P10242",-0.244 ± 0.049
21,"Transcriptional activator Myb A180H, P10242",-0.23 ± 0.097
22,"Transcriptional activator Myb A180I, P10242",-0.005 ± 0.32

row,Substance,abundance fitness
1,"Transcriptional activator Myb A180K, P10242",-0.266 ± 0.082
2,"Transcriptional activator Myb A180L, P10242",-0.111 ± 0.073
3,"Transcriptional activator Myb A180M, P10242",-0.058 ± 0.16
4,"Transcriptional activator Myb A180N, P10242",-0.134 ± 0.33
5,"Transcriptional activator Myb A180P, P10242",-0.76 ± 0.12
6,"Transcriptional activator Myb A180Q, P10242",-0.002 ± 0.12
7,"Transcriptional activator Myb A180R, P10242",-0.327 ± 0.051
8,"Transcriptional activator Myb A180S, P10242",-0.051 ± 0.083
9,"Transcriptional activator Myb A180T, P10242",-0.174 ± 0.078
10,"Transcriptional activator Myb A180W, P10242",-0.28 ± 0.11
11,"Transcriptional activator Myb A180Y, P10242",-0.803 ± 0.43
12,"Transcriptional activator Myb D152A, P10242",-0.24 ± 0.066
13,"Transcriptional activator Myb D152C, P10242",-0.833 ± 0.14
14,"Transcriptional activator Myb D152E, P10242",0.105 ± 0.077
15,"Transcriptional activator Myb D152F, P10242",-0.752 ± 0.12
16,"Transcriptional activator Myb D152G, P10242",-0.452 ± 0.053
17,"Transcriptional activator Myb D152H, P10242",-0.695 ± 0.22
18,"Transcriptional activator Myb D152K, P10242",-0.311 ± 0.1
19,"Transcriptional activator Myb D152L, P10242",-0.249 ± 0.075
20,"Transcriptional activator Myb D152M, P10242",-0.381 ± 0.15
21,"Transcriptional activator Myb D152N, P10242",-0.227 ± 0.074
22,"Transcriptional activator Myb D152Q, P10242",-0.065 ± 0.12

row,Substance,abundance fitness
1,"Transcriptional activator Myb D152R, P10242",-0.519 ± 0.068
2,"Transcriptional activator Myb D152S, P10242",-0.287 ± 0.072
3,"Transcriptional activator Myb D152T, P10242",-0.138 ± 0.082
4,"Transcriptional activator Myb D152V, P10242",-0.304 ± 0.067
5,"Transcriptional activator Myb D152W, P10242",-0.403 ± 0.098
6,"Transcriptional activator Myb D152Y, P10242",-0.38 ± 0.12
7,"Transcriptional activator Myb D178N, P10242",-0.533 ± 0.35
8,"Transcriptional activator Myb E149D, P10242",-0.008 ± 0.27
9,"Transcriptional activator Myb E149G, P10242",-0.143 ± 0.16
10,"Transcriptional activator Myb E149L, P10242",0.009 ± 0.22
11,"Transcriptional activator Myb E149N, P10242",-0.526 ± 0.35
12,"Transcriptional activator Myb E149R, P10242",-0.203 ± 0.12
13,"Transcriptional activator Myb E149S, P10242",-0.188 ± 0.4
14,"Transcriptional activator Myb E149T, P10242",-0.634 ± 0.43
15,"Transcriptional activator Myb E149W, P10242",-0.719 ± 0.47
16,"Transcriptional activator Myb E150A, P10242",0.099 ± 0.075
17,"Transcriptional activator Myb E150C, P10242",-0.219 ± 0.1
18,"Transcriptional activator Myb E150D, P10242",-0.152 ± 0.095
19,"Transcriptional activator Myb E150F, P10242",-0.129 ± 0.16
20,"Transcriptional activator Myb E150H, P10242",-0.41 ± 0.15
21,"Transcriptional activator Myb E150I, P10242",-0.172 ± 0.12
22,"Transcriptional activator Myb E150K, P10242",0.117 ± 0.11

row,Substance,abundance fitness
1,"Transcriptional activator Myb E150L, P10242",-0.17 ± 0.064
2,"Transcriptional activator Myb E150M, P10242",-0.097 ± 0.086
3,"Transcriptional activator Myb E150N, P10242",-0.004 ± 0.15
4,"Transcriptional activator Myb E150P, P10242",-0.468 ± 0.12
5,"Transcriptional activator Myb E150Q, P10242",0.026 ± 0.14
6,"Transcriptional activator Myb E150R, P10242",0 ± 0.061
7,"Transcriptional activator Myb E150T, P10242",-0.103 ± 0.1
8,"Transcriptional activator Myb E150V, P10242",-0.207 ± 0.061
9,"Transcriptional activator Myb E150W, P10242",-0.208 ± 0.083
10,"Transcriptional activator Myb E151A, P10242",-0.597 ± 0.066
11,"Transcriptional activator Myb E151C, P10242",-1.1 ± 0.21
12,"Transcriptional activator Myb E151D, P10242",-0.348 ± 0.15
13,"Transcriptional activator Myb E151F, P10242",-0.927 ± 0.19
14,"Transcriptional activator Myb E151G, P10242",-0.815 ± 0.056
15,"Transcriptional activator Myb E151H, P10242",-0.57 ± 0.13
16,"Transcriptional activator Myb E151I, P10242",-0.49 ± 0.14
17,"Transcriptional activator Myb E151L, P10242",-0.482 ± 0.069
18,"Transcriptional activator Myb E151M, P10242",-0.624 ± 0.12
19,"Transcriptional activator Myb E151N, P10242",-0.674 ± 0.12
20,"Transcriptional activator Myb E151P, P10242",-0.758 ± 0.15

# — the Human Domainome abundance scans (Beltran et al. 2025)
